Assay results from PMC6036645.

Target: Leptospira interrogans thermolysin encoded by LIC13322, prothermolysin fragment PepSY-M4 (74 kDa) (Leptospira interrogans)
Assay: SEC

- stoichiometry N: 2
Substance: Leptospira interrogans thermolysin encoded by LIC13322, prothermolysin fragment PepSY-M4 (74 kDa) (enzyme)
